pKd: −log10 of the molar value. Blank lines part the entries; values can stand above or below the substance they belong to. Where no end group is shown, it is not given here. [ ]: non-standard residue; d: D form. Pra = C#CC[C@H](N)C(=O)O
How the values were obtained:
Assay type in all cases: cell-based
[1] = biological target: T1, hPD-L1 expressed on the surface of Chinese hamster ovary (CHO) cells (CHO-hPD-L1) (Homo sapiens, UniProt Q9NZQ7); assay: Antibody titration by flow cytometry on CHO-hPD-L1 cells; conditions: 4° C., read-out: KD of Fluorescein-labeled antibody on CHO-hPD-L1
T1 construct: expressed in transfected cells; host or cells: CHO
T1 sequence (Q9NZQ7 19-290): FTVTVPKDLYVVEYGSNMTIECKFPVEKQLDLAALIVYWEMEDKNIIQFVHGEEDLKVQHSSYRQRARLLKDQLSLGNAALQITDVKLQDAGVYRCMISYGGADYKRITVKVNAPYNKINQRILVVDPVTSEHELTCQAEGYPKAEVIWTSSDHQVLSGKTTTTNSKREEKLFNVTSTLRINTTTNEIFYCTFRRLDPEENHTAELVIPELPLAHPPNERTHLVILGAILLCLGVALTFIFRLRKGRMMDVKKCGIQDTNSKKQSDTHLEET
From the text: (§1) To do this, we measured SPAM peptide inhibition of anti-PD-L1 antibody binding to hPD-L1 expressed on the surface of Chinese hamster ovary (CHO) cells (CHO-hPD-L1). […] Cells were washed again and analyzed by flow cytometry (FIG. 5B-C).

[2] = biological target: T2, CHO-mPD-L1 cells which express mPD-L1 (Mus musculus, UniProt Q9EP73); assay: Antibody competition by flow cytometry on CHO-mPD-L1 cells; conditions: pre-treatment 0-20 μM, 50 nM antibody
T2 construct: expressed in transfected cells; host or cells: CHO
T2 sequence (Q9EP73 19-290): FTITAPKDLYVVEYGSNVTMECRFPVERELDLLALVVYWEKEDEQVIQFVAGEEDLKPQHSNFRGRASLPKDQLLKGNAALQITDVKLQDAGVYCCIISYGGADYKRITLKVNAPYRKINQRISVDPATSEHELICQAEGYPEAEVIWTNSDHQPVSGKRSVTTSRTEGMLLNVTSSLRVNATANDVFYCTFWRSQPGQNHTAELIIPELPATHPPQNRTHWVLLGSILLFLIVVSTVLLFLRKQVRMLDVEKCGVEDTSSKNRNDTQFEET
Protocol: We performed similar experiments with CHO-mPD-L1 cells which express mPD-L1 to determine if this effect was specific to hPD-L1 expression. We have developed two cross-reactive anti-hPD-L1/mPD-L1 antibodies, 16373 and 16377. These antibodies were labeled with Fluorescein, titrated against CHO-hPD-L1 and CHO-mPD-L1 cells (FIG. 12B-C) and subjected to competition experiments as described above.
The cells were washed once with cold serum free DMEM and incubated with 1 nM FAM-Atezolizumab, 10 nM FAM-Avelumab, 50 nM FAM-16373, or 50 nM FAM-16377 in serum free DMEM at 4° C. for 30 min. Cells were then washed three times with cold serum free DMEM. Cells were subsequently processed by flow cytometry with a BD FACSCalibur system using the FL1 channel. FlowJo v10.1 was used to gate to the major population and median FL1 fluorescence reported.

[3] = biological target: T1, hPD-L1 expressed on the surface of Chinese hamster ovary (CHO) cells (CHO-hPD-L1); assay: Antibody competition by flow cytometry on CHO-hPD-L1 cells; conditions: pre-incubation 30 min 4° C., 0-20 μM; SPAM effect at 20 μM; 1 nM Atezolizumab, 10 nM Avelumab
From the text: as §1
Cells were then washed three times with cold serum free DMEM. Cells were subsequently processed by flow cytometry with a BD FACSCalibur system using the FL1 channel. FlowJo v10.1 was used to gate to the major population and median FL1 fluorescence reported.

- pKd [1]: 9.70
Substance: Atezolizumab: hPD-L1 specific monoclonal antibody

- blocking of Fluorescein-16373 and Fluorescein-16377 in CHO-mPD-L1 cells [2]: blocking was absent
Substance: Cyclo[(AcTyr)(NMeAla)NPHL(Hyp)WS(Trp(Me))(NMeNle) (NMeNle)(Orn)C]-Gly-NH2 (XXNPHLXWSXXXXCG; N-methyl; non-natural residues; cyclised or stapled) [WL-12]

Substance: YKLNLIHPHIFLMDWIFASG-Pra (YKLNLIHPHIFLMDWIFASG[Pra]-NH2; N-terminus assumed; SMILES C#CC[C@H](NC(=O)CNC(=O)[C@H](CO)NC(=O)[C@H](C)NC(=O)[C@H](Cc1ccccc1)NC(=O)[C@@H](NC(=O)[C@H](Cc1c[nH]c2ccccc12)NC(=O)[C@H](CC(=O)O)NC(=O)[C@H](CCSC)NC(=O)[C@H](CC(C)C)NC(=O)[C@H](Cc1ccccc1)NC(=O)[C@@H](NC(=O)[C@H](Cc1c[nH]cn1)NC(=O)[C@@H]1CCCN1C(=O)[C@H](Cc1c[nH]cn1)NC(=O)[C@@H](NC(=O)[C@H](CC(C)C)NC(=O)[C@H](CC(N)=O)NC(=O)[C@H](CC(C)C)NC(=O)[C@H](CCCCN)NC(=O)[C@@H](N)Cc1ccc(O)cc1)[C@@H](C)CC)[C@@H](C)CC)[C@@H](C)CC)C(N)=O) [SPAM-scramble, control scrambled peptide, reference compound]
- Fluorescein-Atezolizumab and Fluorescein-Avelumab binding to CHO-hPD-L1 after pre-incubation [3]: not observed
